From article PMC11406985

Biological target: medusavirus major capsid protein (medusavirus)
Experiment: cryo-EM structure; purified medusavirus particles (DNA-empty and DNA-full) assembled in infected amoebae, in PBS; single particle analysis with block-based reconstruction of fivefold, threefold and twofold blocks, 7.3-9.9 Å; AlphaFold2 model of the MCP fitted into the map

## medusavirus major capsid protein (natural protein)
  stoichiometry N: 3
